The values below come from article PMC6477676, “Staufen2-mediated RNA recognition and localization requires combinatorial action of multiple domains”.

One data set concerns the target T1, mStau2 dsRBD1-2 H36A (Mus musculus, UniProt Q8CJ67 8-181, H36A).
T1 sequence: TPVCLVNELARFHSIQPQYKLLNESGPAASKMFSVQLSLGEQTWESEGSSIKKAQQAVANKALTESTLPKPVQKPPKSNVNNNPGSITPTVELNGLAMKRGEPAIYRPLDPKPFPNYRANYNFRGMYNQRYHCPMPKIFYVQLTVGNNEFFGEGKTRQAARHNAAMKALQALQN
Kind of data set: SPR; Hill n 0.9; SPR: HBS-EP (10 mM HEPES pH 7.4, 150 mM NaCl, 3 mM EDTA, 0.005% P20); EMSA: 5 nM RNA, protein buffer (40 mM Bis-Tris pH 7, 150 mM NaCl, 2 mM DTT presumed), 4% glycerol, 30 ug/mL yeast tRNA, RT; NMR: 150 mM NaCl, 20 mM Na phosphate pH 7.0, 5 mM DTT, 298 K. Particulars: protein: recombinant; label: 5' 32P (EMSA); biotin (SPR); imperfect hairpin, 26 bp with two bulges.

The target in the next data set is T2, mStau2 dsRBD1-2 K59A (Mus musculus, UniProt Q8CJ67 8-181, K59A).
T2 sequence: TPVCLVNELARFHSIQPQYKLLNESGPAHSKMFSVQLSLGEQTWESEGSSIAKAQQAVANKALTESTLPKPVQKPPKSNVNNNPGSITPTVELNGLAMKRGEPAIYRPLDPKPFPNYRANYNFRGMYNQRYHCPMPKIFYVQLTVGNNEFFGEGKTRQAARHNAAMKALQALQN
The description is as above. The settings on record: protein: recombinant; label: 5' 32P (EMSA); biotin (SPR); imperfect hairpin, 26 bp with two bulges. Background: A gel shift assay detects complexes by their altered migration in electrophoresis.

A further data set addresses T3, mStau2 dsRBD1-4 (Mus musculus, UniProt Q8CJ67 8-375).
T3 sequence: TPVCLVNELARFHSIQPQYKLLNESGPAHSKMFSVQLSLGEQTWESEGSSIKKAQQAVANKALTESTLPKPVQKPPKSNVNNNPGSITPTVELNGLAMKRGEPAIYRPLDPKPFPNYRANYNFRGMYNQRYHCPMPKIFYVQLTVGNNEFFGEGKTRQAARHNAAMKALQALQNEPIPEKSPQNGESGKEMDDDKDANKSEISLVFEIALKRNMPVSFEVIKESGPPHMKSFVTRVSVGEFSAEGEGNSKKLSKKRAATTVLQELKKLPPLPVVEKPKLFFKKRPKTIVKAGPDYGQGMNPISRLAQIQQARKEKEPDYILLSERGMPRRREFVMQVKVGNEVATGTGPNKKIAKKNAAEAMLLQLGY
Briefly: SPR; Hill n 1.7; text says 330 nM; SPR: HBS-EP (10 mM HEPES pH 7.4, 150 mM NaCl, 3 mM EDTA, 0.005% P20); EMSA: 5 nM RNA, protein buffer (40 mM Bis-Tris pH 7, 150 mM NaCl, 2 mM DTT presumed), 4% glycerol, 30 ug/mL yeast tRNA, RT; NMR: 150 mM NaCl, 20 mM Na phosphate pH 7.0, 5 mM DTT, 298 K. Particulars: protein: recombinant; tags: HisSUMO removed; label: 5' 32P (EMSA); biotin (SPR); imperfect hairpin, 26 bp with two bulges. (SPR reads the build-up and loss of mass on a sensor chip optically.)

The target in another data set is T4, mStau2 dsRBD2 (Mus musculus, UniProt Q8CJ67 95-181).
T4 sequence: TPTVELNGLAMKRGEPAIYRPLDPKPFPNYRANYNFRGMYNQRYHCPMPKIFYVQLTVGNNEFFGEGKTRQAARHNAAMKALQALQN
Kind of data set: SPR; Hill n 1.3; SPR: HBS-EP (10 mM HEPES pH 7.4, 150 mM NaCl, 3 mM EDTA, 0.005% P20); EMSA: 5 nM RNA, protein buffer (40 mM Bis-Tris pH 7, 150 mM NaCl, 2 mM DTT presumed), 4% glycerol, 30 ug/mL yeast tRNA, RT; NMR: 150 mM NaCl, 20 mM Na phosphate pH 7.0, 5 mM DTT, 298 K. The settings on record: protein: recombinant; label: 5' 32P (EMSA); biotin (SPR); hairpin, 18 bp stem.

In another data set the target is T5, mStau2 dsRBD1-2 E99A (Mus musculus, UniProt Q8CJ67 8-181, E99A).
T5 sequence: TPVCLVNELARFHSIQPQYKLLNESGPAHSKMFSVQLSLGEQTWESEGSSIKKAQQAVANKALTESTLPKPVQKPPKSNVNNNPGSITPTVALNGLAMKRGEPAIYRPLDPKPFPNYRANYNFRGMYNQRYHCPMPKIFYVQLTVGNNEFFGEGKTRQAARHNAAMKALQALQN
Kind of data set: SPR; Hill n 1.5; SPR: HBS-EP (10 mM HEPES pH 7.4, 150 mM NaCl, 3 mM EDTA, 0.005% P20); EMSA: 5 nM RNA, protein buffer (40 mM Bis-Tris pH 7, 150 mM NaCl, 2 mM DTT presumed), 4% glycerol, 30 ug/mL yeast tRNA, RT; NMR: 150 mM NaCl, 20 mM Na phosphate pH 7.0, 5 mM DTT, 298 K. Particulars: protein: recombinant; label: 5' 32P (EMSA); biotin (SPR); hairpin, 18 bp stem.

Another data set addresses T6, mStau2 dsRBD1-2 F157A (Mus musculus, UniProt Q8CJ67 8-181, F157A).
T6 sequence: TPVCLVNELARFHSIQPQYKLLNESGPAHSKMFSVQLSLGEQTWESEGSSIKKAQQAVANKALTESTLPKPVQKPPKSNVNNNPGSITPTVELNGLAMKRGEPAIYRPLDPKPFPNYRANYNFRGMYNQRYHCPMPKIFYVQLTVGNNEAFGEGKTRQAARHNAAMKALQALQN
Kind of data set: SPR; Hill n 1.5; stable kinetics; SPR: HBS-EP (10 mM HEPES pH 7.4, 150 mM NaCl, 3 mM EDTA, 0.005% P20); EMSA: 5 nM RNA, protein buffer (40 mM Bis-Tris pH 7, 150 mM NaCl, 2 mM DTT presumed), 4% glycerol, 30 ug/mL yeast tRNA, RT; NMR: 150 mM NaCl, 20 mM Na phosphate pH 7.0, 5 mM DTT, 298 K. Particulars: protein: recombinant; label: 5' 32P (EMSA); biotin (SPR); hairpin, 18 bp stem.

B1: SRS* (SRS3) (structured_RNA)
RNA: GGUAUGUGUGAAUGUGCAUGAAUAUAUAUAUAUAUGCAUAUAUAUAUUUGUAUAUGUUCACACAUG
For the molecule B1, the Kd with mStau2 dsRBD1-2 H36A was determined as 499 ± 149 nM; in the data set with mStau2 dsRBD1-2 K59A, 624 ± 142 nM; with mStau2 dsRBD1-4, 287 ± 127 nM.

B2: SRS2+5 (structured_RNA)
RNA: GGUAUAUACAUGCACAUGCAAUUUGUGUAUGUGUAUGUAUAUA
B2: the Kd in the data set with mStau2 dsRBD2 turned out to be 650 ± 247 nM; with mStau2 dsRBD1-2 E99A, 635 ± 308 nM; with mStau2 dsRBD1-2 F157A, 497 ± 238 nM.

By Kd is commonly meant the constant that tells how readily two partners part at equilibrium.
